The text below walks through data of publication PMC3331935 (Developmental Cell, 2012).

Some targets named below: Notch3 (UniProt Q61982 40-2318); Notch2 (UniProt O35516 26-2473); Notch4 (UniProt P31695 21-1964).
What all share (assay): alkaline phosphatase fusion protein binding assay
Test [1] deals with Notch1, transfected into HEK293 cells and immunoprecipitated on protein G beads (UniProt Q07008 19-2531).

Sequence of Notch2 (O35516 26-2473): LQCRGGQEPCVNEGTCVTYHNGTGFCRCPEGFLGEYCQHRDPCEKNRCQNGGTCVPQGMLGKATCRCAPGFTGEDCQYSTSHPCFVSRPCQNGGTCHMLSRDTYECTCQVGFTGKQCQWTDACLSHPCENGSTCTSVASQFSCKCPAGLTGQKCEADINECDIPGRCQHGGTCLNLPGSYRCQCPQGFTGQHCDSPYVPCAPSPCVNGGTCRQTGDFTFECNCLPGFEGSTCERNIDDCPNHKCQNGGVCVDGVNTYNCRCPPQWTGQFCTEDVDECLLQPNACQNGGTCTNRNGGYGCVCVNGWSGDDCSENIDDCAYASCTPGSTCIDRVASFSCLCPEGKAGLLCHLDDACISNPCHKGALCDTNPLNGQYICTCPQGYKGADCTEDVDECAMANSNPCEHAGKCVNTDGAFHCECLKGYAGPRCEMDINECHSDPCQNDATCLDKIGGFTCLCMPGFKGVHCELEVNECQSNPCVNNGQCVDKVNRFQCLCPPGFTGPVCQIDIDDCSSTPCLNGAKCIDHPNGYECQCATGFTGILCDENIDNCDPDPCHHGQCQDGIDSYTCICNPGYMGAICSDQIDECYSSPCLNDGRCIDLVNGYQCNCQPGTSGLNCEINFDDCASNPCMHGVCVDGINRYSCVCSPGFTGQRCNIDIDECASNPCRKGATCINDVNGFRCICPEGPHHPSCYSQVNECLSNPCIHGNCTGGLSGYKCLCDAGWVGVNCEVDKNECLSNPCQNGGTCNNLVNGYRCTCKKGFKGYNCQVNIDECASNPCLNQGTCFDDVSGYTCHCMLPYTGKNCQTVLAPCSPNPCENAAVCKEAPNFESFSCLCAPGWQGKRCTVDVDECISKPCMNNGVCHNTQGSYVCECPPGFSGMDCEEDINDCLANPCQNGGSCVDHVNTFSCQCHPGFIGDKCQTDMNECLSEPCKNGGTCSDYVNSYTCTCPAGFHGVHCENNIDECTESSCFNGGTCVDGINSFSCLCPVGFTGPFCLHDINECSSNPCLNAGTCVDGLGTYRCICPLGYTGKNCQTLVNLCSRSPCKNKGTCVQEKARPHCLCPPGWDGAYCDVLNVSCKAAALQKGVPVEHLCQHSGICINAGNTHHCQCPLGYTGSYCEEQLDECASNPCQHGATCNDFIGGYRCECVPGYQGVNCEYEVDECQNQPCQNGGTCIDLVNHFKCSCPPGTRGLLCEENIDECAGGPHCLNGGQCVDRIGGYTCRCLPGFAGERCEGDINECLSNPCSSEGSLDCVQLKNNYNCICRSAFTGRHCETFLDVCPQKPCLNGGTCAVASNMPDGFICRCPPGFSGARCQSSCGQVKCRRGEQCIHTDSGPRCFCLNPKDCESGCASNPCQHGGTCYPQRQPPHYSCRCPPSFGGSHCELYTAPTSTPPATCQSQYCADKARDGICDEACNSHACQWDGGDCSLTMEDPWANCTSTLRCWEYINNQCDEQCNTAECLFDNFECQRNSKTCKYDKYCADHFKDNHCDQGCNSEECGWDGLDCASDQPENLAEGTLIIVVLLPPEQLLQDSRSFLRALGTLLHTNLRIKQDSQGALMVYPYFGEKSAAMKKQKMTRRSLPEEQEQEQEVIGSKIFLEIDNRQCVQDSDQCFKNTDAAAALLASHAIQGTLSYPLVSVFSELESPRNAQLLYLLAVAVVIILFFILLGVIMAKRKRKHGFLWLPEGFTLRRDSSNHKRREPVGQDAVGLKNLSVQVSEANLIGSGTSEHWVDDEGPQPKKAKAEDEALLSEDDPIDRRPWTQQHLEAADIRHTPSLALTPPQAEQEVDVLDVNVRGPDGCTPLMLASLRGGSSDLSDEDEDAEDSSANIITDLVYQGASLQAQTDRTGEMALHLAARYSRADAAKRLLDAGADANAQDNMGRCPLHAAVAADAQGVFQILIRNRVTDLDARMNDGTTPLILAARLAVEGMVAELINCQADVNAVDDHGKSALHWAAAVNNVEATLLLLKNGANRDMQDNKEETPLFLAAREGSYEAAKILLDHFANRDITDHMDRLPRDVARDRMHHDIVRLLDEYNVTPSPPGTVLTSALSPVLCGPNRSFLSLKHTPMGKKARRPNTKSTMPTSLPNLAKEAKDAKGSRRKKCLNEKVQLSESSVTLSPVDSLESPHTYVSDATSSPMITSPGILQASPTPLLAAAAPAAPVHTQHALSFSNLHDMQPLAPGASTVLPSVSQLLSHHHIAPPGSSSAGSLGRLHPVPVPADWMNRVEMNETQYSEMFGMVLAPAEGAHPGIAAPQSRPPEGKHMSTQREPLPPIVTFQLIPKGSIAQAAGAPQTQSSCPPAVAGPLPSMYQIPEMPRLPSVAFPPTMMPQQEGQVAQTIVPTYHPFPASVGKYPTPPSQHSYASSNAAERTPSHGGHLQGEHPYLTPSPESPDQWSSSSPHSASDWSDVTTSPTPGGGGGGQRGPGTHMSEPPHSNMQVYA
Sequence of Notch4 (P31695 21-1964): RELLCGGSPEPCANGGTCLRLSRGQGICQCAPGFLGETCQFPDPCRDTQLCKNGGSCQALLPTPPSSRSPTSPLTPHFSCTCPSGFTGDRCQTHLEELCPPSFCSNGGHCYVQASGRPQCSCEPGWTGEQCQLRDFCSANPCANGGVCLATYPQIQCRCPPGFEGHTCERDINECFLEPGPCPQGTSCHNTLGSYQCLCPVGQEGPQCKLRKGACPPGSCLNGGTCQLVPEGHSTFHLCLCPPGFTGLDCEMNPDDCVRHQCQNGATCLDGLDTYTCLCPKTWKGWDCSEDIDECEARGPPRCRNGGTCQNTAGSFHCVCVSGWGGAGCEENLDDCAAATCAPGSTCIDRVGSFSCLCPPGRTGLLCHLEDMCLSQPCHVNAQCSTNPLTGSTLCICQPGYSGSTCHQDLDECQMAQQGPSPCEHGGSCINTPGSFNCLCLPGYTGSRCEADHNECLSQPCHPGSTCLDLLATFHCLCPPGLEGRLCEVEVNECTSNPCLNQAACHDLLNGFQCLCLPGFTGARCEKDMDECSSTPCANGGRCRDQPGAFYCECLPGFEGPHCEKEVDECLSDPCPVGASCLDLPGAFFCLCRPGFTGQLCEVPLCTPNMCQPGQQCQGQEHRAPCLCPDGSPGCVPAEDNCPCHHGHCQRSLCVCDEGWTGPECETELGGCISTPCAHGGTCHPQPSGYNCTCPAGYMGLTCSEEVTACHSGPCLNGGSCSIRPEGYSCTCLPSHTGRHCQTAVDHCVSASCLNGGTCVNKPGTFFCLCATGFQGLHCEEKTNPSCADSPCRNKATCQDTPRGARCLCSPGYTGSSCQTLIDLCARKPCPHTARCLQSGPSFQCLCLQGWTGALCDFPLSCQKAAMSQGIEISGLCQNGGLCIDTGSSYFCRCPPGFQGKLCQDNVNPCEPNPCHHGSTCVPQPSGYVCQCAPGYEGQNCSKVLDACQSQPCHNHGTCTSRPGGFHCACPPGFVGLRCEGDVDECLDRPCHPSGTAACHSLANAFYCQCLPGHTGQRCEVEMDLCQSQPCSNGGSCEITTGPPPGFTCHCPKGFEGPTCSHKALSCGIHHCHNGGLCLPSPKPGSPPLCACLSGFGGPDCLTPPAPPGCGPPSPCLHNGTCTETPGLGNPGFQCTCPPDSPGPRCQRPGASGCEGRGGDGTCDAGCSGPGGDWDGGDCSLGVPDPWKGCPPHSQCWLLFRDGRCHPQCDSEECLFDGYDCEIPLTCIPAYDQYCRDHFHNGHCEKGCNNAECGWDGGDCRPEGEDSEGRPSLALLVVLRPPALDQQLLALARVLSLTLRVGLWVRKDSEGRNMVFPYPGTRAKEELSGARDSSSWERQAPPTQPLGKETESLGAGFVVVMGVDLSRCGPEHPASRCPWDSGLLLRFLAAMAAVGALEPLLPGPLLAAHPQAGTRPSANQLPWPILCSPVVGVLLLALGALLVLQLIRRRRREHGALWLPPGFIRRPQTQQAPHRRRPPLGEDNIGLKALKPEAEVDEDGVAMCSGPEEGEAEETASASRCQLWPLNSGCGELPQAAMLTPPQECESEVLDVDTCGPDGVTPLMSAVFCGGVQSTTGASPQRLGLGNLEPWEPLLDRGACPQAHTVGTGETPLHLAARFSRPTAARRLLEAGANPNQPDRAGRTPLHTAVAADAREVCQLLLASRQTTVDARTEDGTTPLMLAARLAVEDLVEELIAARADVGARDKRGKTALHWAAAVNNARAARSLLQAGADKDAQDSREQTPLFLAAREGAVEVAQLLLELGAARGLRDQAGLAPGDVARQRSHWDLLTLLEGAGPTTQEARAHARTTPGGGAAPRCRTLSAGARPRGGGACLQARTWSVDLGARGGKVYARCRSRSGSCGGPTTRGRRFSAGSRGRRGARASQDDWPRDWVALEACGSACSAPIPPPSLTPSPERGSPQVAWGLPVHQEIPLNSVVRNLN

B1: alkaline phosphatase tagged Botch (Botch-N-AP) (natural protein, UniProt Q8R3J5 1-223, looked up)
chain: MKQESASQSTPPPSLSPAPSSAQPSWGDGDPQALWIFGYGSLVWKPDFAYSDSRVGFVRGYSRRFWQGDTFHRGSDKMPGRVVTLLEDREGCTWGVAYQVRGEQVNEALKYLNVREAVLGGYDTKEVTFYPQDTPDQPLTALAYVATPQNPGYLGPAPEEVIATQILACRGFSGHNLEYLLRLADFMQLCGPQAQDEHLEAIVDAVGTLLPCSYLPEQPLALT
For orientation: Kd means the free concentration of one partner at which half of the binding sites on the other are occupied at equilibrium, for simple one-to-one binding. A low value points to tighter binding. On to B1, for which the Kd is 3.3 nM in test [1], 3.3 nM with Notch3, 8.8 nM with Notch2 and 6.3 nM with Notch4.
